What was measured:
[1] = target: human endoglin (human) (UniProt P17813); experiment: FACS, indirect immunofluorescence on HUVEC, antibody at 10 µg/ml, MTSA control subtracted
[2] = target: human endoglin (human) (UniProt P17813); experiment: competitive binding inhibition on HUVEC by FACS; unlabelled TEC-4 against biotinylated TEC-11 as competitor, ratio 1:1
[3] = target: human endoglin (human) (UniProt P17813); experiment: cell-based or functional assay
[4] = target: human endoglin (human) (UniProt P17813); experiment: FACS, postconfluent HUVEC stained with 20 µg/ml TEC-11, sorted endoglin^lo fraction; mean (SD) of 2 studies
[5] = target: human endoglin (human) (UniProt P17813); experiment: FACS, postconfluent HUVEC stained with 20 µg/ml TEC-11, sorted endoglin^hi fraction; mean (SD) of 2 studies

| specific mean fluorescence intensity (MFI) [1] | percent blocking [2] [%] | complement fixation: lysis of HUVEC with guinea-pig complement (trypan blue) (% lysis at 100 µg/ml) [3] | MFI [4] | MFI [5] | complement fixation relative to TEC-4 [3] [fold] | complement fixation: lysis of HUVEC with guinea-pig complement (trypan blue) (% lysis at 1 µg/ml) [3] | Substance |
| --- | --- | --- | --- | --- | --- | --- | --- |
| 200 | 11 | 48 | – | – | – | – | TEC-4 (antibody) |
| 200 | – | – | 61.6 | 270 | 100 | > 50 | TEC-11 (antibody) |

From patent publication US7112317
